Assay: yeast display, Sf9 membrane polyspecificity reagent, FACS + sequencing; frameworks hold sequencing errors
Method in brief: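 A nanobody's polyreactivity label depends on the gate it was sorted from. Yeast display cells were stained with 10% biotinylated, detergent-solubilized Sf9 membrane reagent for 1 hour at 4 °C, enriched on streptavidin microbeads and sorted by FACS. The low and high (top ~1%) gates were set on anti-HA fluorescence for expression and streptavidin fluorescence for reagent binding.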
With “QVQLVESGGGLVQARGSLRLSCAASGSTFLFYAMGWYRQPPGKERELVAAISRGDSTYYAESVKGRFTISRDIAKNTVYLQMNSLKPEDTAVYYCAAGYNHLYVYRMYYWGQGTQVTVSS” the “polyreactivity (PSR sort gate)” value was “high polyreactivity”.
With “QVQLVESGGGLVQARGSLRLSCAASGSTFQYTMGCYRQAPRTERELVAAITSTGGSTYYADSVKGRFTISRDNAKNTVYLQRNSLKAEDTAVYYWNADYFGGGDYWGQGTQVTVSS” the “polyreactivity (PSR sort gate)” value was “low polyreactivity”.
In the case of “QVQLVESGGGLVQARGSLRLSCAASGSTFSYYTMGWYRQAPGKERELVATISRRGASTYYADSVKGRFTISRDNAKNTVYLQMHSLKPEDTAVYYCAKSYYYGRSATRPEYDYWGQGTQVTVSS”, the “polyreactivity (PSR sort gate)” value is reported as “high polyreactivity”.
In the case of “QVQLVESGGGLVQARGSLRLSCAASGSTILYYAMGWYRQAPGKERELVAVIRLDAGRTYYADSVKGRFTISRDNAKNTVYFQMNSLKPEDTAVYYCAAKGCFRTYGGGNYWGQGTQVTVSS”, the “polyreactivity (PSR sort gate)” value is reported as “high polyreactivity”.
With “QVQLVESGGGLVQARGSLRLSCAASVSTFGGNAMGWYRQAPGKERQLVAAISCIGGGTYYADSVKGRFTISRDNAKNTVYLQMKSLKPEYTAVYYCAAKIFIRVHYYSYRMYYWGQGTQLTVSS” the “polyreactivity (PSR sort gate)” value was “low polyreactivity”.
In the case of “QVQLVESGGGLVQARGSLRLSCAATGSTLSFYAMVWYRQAPGKERELVAAISYSTGTTYYADSVKGRFTISRDNAKNTVYLQMNSLKPEDTAVYYCNAVGTGGYSSEYGYWGQGTQVTVSS”, the “polyreactivity (PSR sort gate)” value is reported as “high polyreactivity”.
With “QVQLVESGGGLVQARGSLRLSCEASGFTFGSNTMACYRQAPGKERELVAAITRRGGSTNYADSVKGRFTISRDNAKNTVYLQMNSLKPDDTAVYYCARDYRSYTVSYDTSYDYWGQGTQVTVSS” the “polyreactivity (PSR sort gate)” value was “high polyreactivity”.
In the case of “QVQLVESGGGLVQARGSLRLSSAASGSTFVVNAMGWYRQAPGKERELVAAITQSGGSTFYADSVKGRFTISRVNAKNTVYLQMNSLQAEDTAVYYWGQGTQVTVSS”, the “polyreactivity (PSR sort gate)” value is reported as “low polyreactivity”.
With “QVQLVESGGGLVQARGSLRLSSGASGSTFATDYAMGWYRQAPGKERELDAAIAYTSASTYYADSVKGRITISRDNAKNPVYLQMNTLKPEDTAVYYCAADYGGTREYYWGQGTQVTVSS” the “polyreactivity (PSR sort gate)” value was “low polyreactivity”.
In the case of “QVQLVESGGGLVQARGSRRLSCAASGFIFRFNAMGWYRQAPGKERELVASITGSGGITYADSVKRRFTMSRDNAKNTVFLPMHSLKPDDTAVYYSAARGDGYQSGWVADWAPFYYWRQGTQVTVSS”, the “polyreactivity (PSR sort gate)” value is reported as “high polyreactivity”.
With “QVQLVESGGGLVQARRSLRLSCAASGFTVKRYAMGWYRPEPGKEREFVAAITRGGGSTYYADYVKGRFTISRDNAKNTVYLQMNSLKPEDTAVYYCNARSRSYVPYYYWGQGTQVTVSS” the “polyreactivity (PSR sort gate)” value was “high polyreactivity”.
In the case of “QVQLVESGGGLVQARRSLRLSCAASGNIFWRNAMGWYRQAPGKERELVAAISRRAVSTYYADSVKGRFTISRDNAKNTVYLQMNSLKPEDTAVYYCAARLGGENDYWGQGTQVTVSS”, the “polyreactivity (PSR sort gate)” value is reported as “high polyreactivity”.
With “QVQLVESGGGLVQAVASLRLSCAASGRIFGPYAMGWDRQAPGKERELVASITRSGGRTYYADSVKGRFTISRDYAKNTVYLQMNSLKPDDTAVYYCAAGGFSKSDYYWGQGTQVTVSS” the “polyreactivity (PSR sort gate)” value was “high polyreactivity”.
With “QVQLVESGGGLVQAVGRLRLSCAASGGIFSINAMGWYRQAPGKERELVAAIRWNSGRTYYADSVKGRFTISRDNAKNTVYLQMNSLKPEDTAVYYCAVRDYISWEDYYWGQGTQVTVSS” the “polyreactivity (PSR sort gate)” value was “high polyreactivity”.
With “QVQLVESGGGLVQAVGRLRLSCAASGSTFAIYAMGWYRQAPGKERELVAAITVSGGSTYYADSVKGRFTISRDNAKNTVYLQMNSLKPEDTAVYYCNADWSGWQGWYNYWGQGTQVTVSS” the “polyreactivity (PSR sort gate)” value was “low polyreactivity”.
For “QVQLVESGGGLVQAVGSLRLSCAACGSIFYWNALGWYRQAPGKEREFVASIRKSGGSTNYADSVKGRFTISRDNAMNTVYLQMNSMKPEDSAVYDCAAYSYYRGPIYDYWGQGTQVTVSS”, the “polyreactivity (PSR sort gate)” value was “low polyreactivity”.
In the case of “QVQLVESGGGLVQAVGSLRLSCAASGFPFRRYALGCYRQAPGKERELDATISSSGASTYYADSVKGRFTISRDHAKNTVYFKMIRLKPVDTAVYYCAATKGSICKLYLYCLFDYWGQGTQVTVSS”, the “polyreactivity (PSR sort gate)” value is reported as “high polyreactivity”.
In the case of “QVQLVESGGGLVQAVGSLRLSCAASGGIFRVYAMGWYREAPGKEREMVAAIRWTGGSTYYADSVKGRFKISRDNAKNTVYLQMKRLKPEDTAVYYWAAGRYYSDGSRTIYDYWGQGTQVTVSS”, the “polyreactivity (PSR sort gate)” value is reported as “low polyreactivity”.
With “QVQLVESGGGLVQAVGSLRLSCAASGGTIDIYAMGWYRQAPAKERELVARISYSSGSTHYADSVKGRFTNSRDNAKNTVYLQMNSLKPEDTAVYYCAATAYWFYAKYYYWGQGTQVTVSS” the “polyreactivity (PSR sort gate)” value was “high polyreactivity”.
For “QVQLVESGGGLVQAVGSLRLSCAASGRIFRVNAMGWYRQAPGKERELVASITSGGSTHYADSVKGRFTISRDNAKNTVYLQMNSLKPEDTAVYYCNVAYGLLWISPGGDYWGQGTQVTVSS”, the “polyreactivity (PSR sort gate)” value was “low polyreactivity”.
In the case of “QVQLVESGGGLVQAVGSLRLSCAASGRTFYYYAMGWYRQAPGKERELVASITYYADSVKGRFTISRDNAKNTVYLQMKSLKPEDTAVYYCAARANSYHSFTSHYDYWGQGTQVSVSS”, the “polyreactivity (PSR sort gate)” value is reported as “low polyreactivity”.
For “QVQLVESGGGLVQAVGSLRLSCAASGSIFGGYAMGWYRQAPGKERELVAAITYSGGSTYYADSVKGRFTISRDNAKNTVYLQMNSLKPEDTAVYYCAAESYDPYYEYDYWGQGTQVTVSS”, the “polyreactivity (PSR sort gate)” value was “high polyreactivity”.
For “QVQLVESGGGLVQAVGSLRLSCAASGSIFQPYAMGWYRQAPGKERELVAAISIGDSTNYADSVKGRFTISRDNAKNTVYLQMNSLKPEDTAVYYCNTTGEYYDYWGQGTQVTVSS”, the “polyreactivity (PSR sort gate)” value was “low polyreactivity”.
With “QVQLVESGGGLVQAVGSLRLSCAASGSTFLLNAMGWYRQAPGKEREFVAAITGNAGSTYYADSVKGRFTISRDNAKNTVYLQMNSLKPEDTAVYYCAAALPGYDGDYWGQGTQVTVSS” the “polyreactivity (PSR sort gate)” value was “low polyreactivity”.
In the case of “QVQLVESGGGLVQAVGSLRLSCAASGSTLTSYGMGWYRQAPGKERELVAAISRNGGGTYYADSVKGRFTISRDNAKNTVYLQMNSLKPEDTAGYYCAVVRYSSRYDYWGQGTQVTVSS”, the “polyreactivity (PSR sort gate)” value is reported as “high polyreactivity”.
In the case of “QVQLVESGGGLVQAVGSLRLSCADSGLPFYRNAMGWYRQARGKVRELVAAISLRGGSTYYADSVKGRFTISRDHAKNPVYLQMNSLKPEDTAVYYCAARRWWLNLDYWGQGTQVTVSS”, the “polyreactivity (PSR sort gate)” value is reported as “high polyreactivity”.
In the case of “QVQLVESGGGLVQAVGSLRLSCDATGSTLHKNTMGWYRQAPAKERELVAAISRRGGSTYYADSVKGRFTISRDNAKITVYLQMNSLKPEDTAVYYCATEGYDGEFDYWGQGTQVTVSS”, the “polyreactivity (PSR sort gate)” value is reported as “high polyreactivity”.
In the case of “QVQLVESGGGLVQAVGSLRLTCAASGITFLNYAMGWYRQAPGKERELVSAISWSGGRTYYAVSVKGRFTISRDYAKNTVYLQMNSLKPEDTAVYYCATVYVRYRQSRLIRYGYWGQGTQVTVSS”, the “polyreactivity (PSR sort gate)” value is reported as “high polyreactivity”.
For “QVQLVESGGGLVQAVVSLRLSCAASGSIFGGYAMGWYRQAPGKERELVAAISYRGASTYYADSVKGRFTISRDNAKNTVYLQMNSLKPEDTAVYYCAVAARTRARVLYGYDYWGQGTQVTVSS”, the “polyreactivity (PSR sort gate)” value was “low polyreactivity”.
For “QVQLVESGGGLVQEGCSLRLSCAPSGIIFGVNAMGLYRQAPAKERELVAVITWSGGSTYYADSVKGRFTISRDNAKNTVYLQMNSLKPEDTAVYYCNADSSASTIDRQGEYYYLGQGTQVTVSS”, the “polyreactivity (PSR sort gate)” value was “low polyreactivity”.
For “QVQLVESGGGLVQEGGRLRISCAATGINFSWYAMGWNRPATGKERELVASITIGGNTNFADSVKGRFTISLYNAKNSVYLQMNSLKREDTAVYYCAAQTFWYGYGGGVYWGQGTQVTVSS”, the “polyreactivity (PSR sort gate)” value was “low polyreactivity”.
In the case of “QVQLVESGGGLVQEGGRLRLSCAASGRIISINAMGWYRQAPGKERELVAAITRGGTTYADSVKGRFTISRDIAKNTVYLHMNRLKPEDPAVYYCNARTGRSPSGFRYWGQGTQVTVSS”, the “polyreactivity (PSR sort gate)” value is reported as “high polyreactivity”.
With “QVQLVESGGGLVQEGGSIRLSCAASGRIFYFNTMGWSRQAPGKERELVAAISKNGGSTYYADSVKGRFTISRDNEKNSVYLQMNSLKPEDTAFYLCAKTRRLSPYDYWGLGTQVTVSS” the “polyreactivity (PSR sort gate)” value was “high polyreactivity”.
With “QVQLVESGGGLVQEGGSLGLSCAASGRIFIPYAMGWYRQETGKEREFVATIRWRGGRTYYADSVKGRFTISRDNAKNTVYLQLYSLKPEDTAVYYCAARSNALFRFDYWGQGTQVSVSS” the “polyreactivity (PSR sort gate)” value was “high polyreactivity”.
In the case of “QVQLVESGGGLVQEGGSLRIICAASGFIFYYYAMGWYRQAPGKERELVAGISRRGGSTYYADSVKGRFTISRDNAKNTVYLQMNSLKPEDTAVYYCAALGDDATSYGYWGQGTQVTVSS”, the “polyreactivity (PSR sort gate)” value is reported as “high polyreactivity”.
For “QVQLVESGGGLVQEGGSLRLICAASGLIFRTYTMGWYRQAPGKERELVATITRRGGTTYYADSVKGRFTISRDNAKNTVYLQMNSLKPEDTAVYYCAKSPYYTWKYDYWGQGTQVTVSS”, the “polyreactivity (PSR sort gate)” value was “high polyreactivity”.
With “QVQLVESGGGLVQEGGSLRLICAASGRIFFYYAMGWYRQAPGKERELVAAISQSGGSTYYADSVKGRFTISRDNAKNTVYLQMNSLKPEDPAVYYCNAAEPYYDTSAVAGDYWGQGTQVTVSS” the “polyreactivity (PSR sort gate)” value was “low polyreactivity”.
In the case of “QVQLVESGGGLVQEGGSLRLICAASGRTFRHNVMGWYRQAPGKQRELVAAISYSGGSTHYADSVKGRFTISRDNAKYTVYLQMNSLKPVDTAVYYCNRYSYDSHFLYPFRGHDYWGQGTQVTVSS”, the “polyreactivity (PSR sort gate)” value is reported as “low polyreactivity”.
In the case of “QVQLVESGGGLVQEGGSLRLICAASGSTFIYNAMGWYRQAPGKERELVASISTSGGSTYYADSVKGRFTISRDNAKNTVYFQMNSLIPEDTAVYYCAKRYFFKYGYWGQGTQVTVSS”, the “polyreactivity (PSR sort gate)” value is reported as “high polyreactivity”.
In the case of “QVQLVESGGGLVQEGGSLRLNCAASGSTFWGNAMGWYRQPPGKDRELVAAISTSDTSTYYADSVKGRFTISRDNAKNTVYLQMNSLKPEDTAVYFCAAEWYYGEKYDYWGQGTQVTVSS”, the “polyreactivity (PSR sort gate)” value is reported as “low polyreactivity”.
For “QVQLVESGGGLVQEGGSLRLRCAASGGIFASNAMRWYRQAPGKERELLATITRGGSTNYADSVKGRFTISRDNAKNTVYLQMNSLKPEDTAVYYCAARFYSRAFWPAYYYWGQGTQVTVSS”, the “polyreactivity (PSR sort gate)” value was “high polyreactivity”.
For “QVQLVESGGGLVQEGGSLRLSCAASGFIFLYYAMGWYRQAPGKERELVASINRVGSTYYADSVKGRFTISRDNAKKTVYLQMNSLKPEVTAVYYCNARWIGRLTPYRRATYNYWGQVTQVTVSS”, the “polyreactivity (PSR sort gate)” value was “high polyreactivity”.
With “QVQLVESGGGLVQEGGSLRLSCAASGFIFTPNTMGWYRQAPGKERELVAAITTNGGRTYYADSVKGRFTISRDNAKNTVYLQMNSLKSEDTAVYYCAARYVSSFGLHAQVWSYYYCGQGTQVTVSS” the “polyreactivity (PSR sort gate)” value was “high polyreactivity”.

Reference: the nanobody polyreactivity screen of Harvey et al. (2022)
